This note sets out measurements from patent US20020142392A1 (WA PHARM, published 2002).

The target of test [1] is T1, MC-2 receptor, polypeptide of SEQ ID NO:16 (human, UniProt P33032 1-325).
T1 construct: Tested on COS-7 cells transfected with pE-MC-2; also called MSH receptor subtype; pE-MC-2 transfected COS-7 cells
T1 chain: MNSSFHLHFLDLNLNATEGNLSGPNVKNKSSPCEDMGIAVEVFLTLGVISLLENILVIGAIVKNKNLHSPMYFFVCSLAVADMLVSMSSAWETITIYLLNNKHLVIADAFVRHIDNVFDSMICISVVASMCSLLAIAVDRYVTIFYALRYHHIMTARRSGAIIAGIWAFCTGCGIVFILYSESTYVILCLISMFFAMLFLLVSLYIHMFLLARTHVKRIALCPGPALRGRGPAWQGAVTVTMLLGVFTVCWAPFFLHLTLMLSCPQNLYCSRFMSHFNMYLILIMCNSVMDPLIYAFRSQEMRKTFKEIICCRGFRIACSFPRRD
Description: competition with 125I-NDP-MSH on pE-MC-2 transfected COS-7 cells. The protocol: (§1) Eighty percent confluent cultures were transfected with 1 μg of pE-MC-2 plasmid DNA and 40 μg lipofectin (BRL, 8400 Helgerman Court, Gaithersburg, Md. 20877, USA) in serum free medium. Five hours after transfection, serum containing medium was replaced, and cells were cultivated for 20 hours. Cells were then scraped off, centrifuged, resuspended in serum containing medium, plated on 48 well plates, and allowed to grow for 24 hours. […] Radioactivity was counted and data analyzed by iterative, non-linear curve fitting programme suitable for radioligand binding analysis (see FIG. 9). […] The Kᵢ-values were then calculated from the IC-50 values estimated thus estimated by using the Cheng and Prusoff equation, as previously described (Cheng and Prusoff 1973).

Test [2] has as its target T2, human melanocyte stimulating hormone receptor (MSH receptor), polypeptide of SEQ ID NO:2 (human, UniProt Q01726 1-317).
T2 construct: also called 11D cDNA product; expressed MSH receptor
T2 sequence: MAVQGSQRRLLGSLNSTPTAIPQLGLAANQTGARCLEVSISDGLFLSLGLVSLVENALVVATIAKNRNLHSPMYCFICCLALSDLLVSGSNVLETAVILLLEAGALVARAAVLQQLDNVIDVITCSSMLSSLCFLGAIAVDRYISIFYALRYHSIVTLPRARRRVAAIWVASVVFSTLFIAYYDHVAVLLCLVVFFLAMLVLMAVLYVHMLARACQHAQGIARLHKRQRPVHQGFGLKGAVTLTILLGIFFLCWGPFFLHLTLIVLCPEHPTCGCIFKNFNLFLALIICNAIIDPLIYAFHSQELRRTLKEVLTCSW
In words: competition with 125I-NDP-MSH on pE-11D transfected COS-7 cells; Cheng-Prusoff from IC50. The method, then: as §1, with “20877, USA). Eighty” for “Eighty”, “pE-11D” for “pE-MC-2”, “6).” for “9).”

Test [3] addresses T1, MC-2 receptor, polypeptide of SEQ ID …. In words: competition with 125I-NDP-MSH on pE-MC-2 transfected COS-7 cells; Cheng-Prusoff from IC50. The method, then: as §1

A word on the Ki: it is the dissociation constant of the complex between target and ligand, obtained from inhibition or displacement.

B1: β-endorphin (peptide, UniProt P01189 237-267, looked up)
peptide: YGGFMTSEKSQTPLVTLFKNAIIKNAYKKGE
notes: domain: β-endorphin; Bought from Saxon Biochemicals GmbH; also called non-melanotropic POMC peptide β-endorphin
Take B1: in test [1], the binding result was “no binding”.

B2: β-MSH (peptide, UniProt P01189 217-234, looked up)
peptide: DEGPYRMEHFRWGSPPKD
notes: domain: β-MSH; Bought from Saxon Biochemicals GmbH; also called beta-melanocyte stimulating hormone
Consider B2, for which the results for the Ki in test [2] and in test [3] were 0.449 nM and 1750 nM, respectively.

B3: ACTH (4-10) (peptide, UniProt P01189 141-147, looked up)
peptide: MEHFRWG
notes: domain: ACTH (4-10); Bought from Saxon Biochemicals GmbH
In turn, B3 returned a Ki in test [2] of 22.4 nM.

B4: ACTH (1-39) (peptide, UniProt P01189 138-176, looked up)
peptide: SYSMEHFRWGKPVGKKRRPVKVYPNGAEDESAEAFPLEF
notes: domain: ACTH (1-39); Bought from Saxon Biochemicals GmbH; also called adrenocorticotropic hormone (1-39)
For the molecule B4, the figures for the Ki in test [2] and in test [3] were 0.17 nM and 929 nM, respectively.
